# System: Escherichia coli TOP10
# Experiment: shrunken log2 fold change of peptide-encoding DNA abundance (4.5 h post-induction vs induction); higher = less antimicrobial activity (less host growth inhibition)
# Conditions: time post-induction: 4.5 h; library: site-saturation at positions 5, 18, 19, 20
# 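Further: peptides expressed intracellularly from a pBAD plasmid library in pooled LB shake-flask culture, induced with 0.3% L-arabinose, DNA abundance read by NGS, three biological replicates, DESeq2 with apeglm shrinkage.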
row,Sequence,shrunken log2 fold change
1,RRIRVRPPRLPRPRPRPWCAPRP,-0.0313
2,RRIRARPPRLPRPRPRPRLIPRP,0.235
3,RRIRLRPPRLPRPRPRPQNKPRP,-0.432
4,RRIRYRPPRLPRPRPRPHVQPRP,-0.0701
5,RRIRIRPPRLPRPRPRPWKLPRP,-0.0644
6,RRIRHRPPRLPRPRPRPTCWPRP,-0.0322
7,RRIRERPPRLPRPRPRPTTNPRP,-0.185
8,RRIRNRPPRLPRPRPRPDGWPRP,0.235
9,RRIRPRPPRLPRPRPRPSHYPRP,-0.479
10,RRIRWRPPRLPRPRPRPNSFPRP,-0.0131
11,RRIRHRPPRLPRPRPRPMITPRP,-0.658
12,RRIRFRPPRLPRPRPRPHLMPRP,-0.149
13,RRIRERPPRLPRPRPRPMNSPRP,-0.0427
14,RRIRKRPPRLPRPRPRPPTSPRP,0.146
15,RRIRERPPRLPRPRPRPVLFPRP,-0.141
16,RRIRKRPPRLPRPRPRPEPSPRP,0.956
17,RRIRNRPPRLPRPRPRPQDRPRP,0.0155
18,RRIRPRPPRLPRPRPRPGHGPRP,0.296
19,RRIRNRPPRLPRPRPRPPMEPRP,-0.203
20,RRIRTRPPRLPRPRPRPYQDPRP,-0.0173
21,RRIRMRPPRLPRPRPRPDVWPRP,1.19
22,RRIRVRPPRLPRPRPRPVTFPRP,-0.467
23,RRIRMRPPRLPRPRPRPFNTPRP,-0.0396
24,RRIRDRPPRLPRPRPRPPNGPRP,0.0163
25,RRIRQRPPRLPRPRPRPQWHPRP,-0.0165

row,Sequence,shrunken log2 fold change
1,RRIRWRPPRLPRPRPRPSWLPRP,-0.167
2,RRIRPRPPRLPRPRPRPVYWPRP,-0.139
3,RRIRCRPPRLPRPRPRPCTIPRP,0.105
4,RRIRARPPRLPRPRPRPLEEPRP,1.04
5,RRIRVRPPRLPRPRPRPPWTPRP,0.223
6,RRIRLRPPRLPRPRPRPGRYPRP,-0.124
7,RRIRQRPPRLPRPRPRPWNDPRP,-0.373
8,RRIRYRPPRLPRPRPRPIKCPRP,-0.00104
9,RRIRSRPPRLPRPRPRPGGGPRP,0.908
10,RRIRERPPRLPRPRPRPRPGPRP,0.464
11,RRIRERPPRLPRPRPRPIDFPRP,0.136
12,RRIRERPPRLPRPRPRPSQCPRP,-0.0684
13,RRIRVRPPRLPRPRPRPKKVPRP,-0.11
14,RRIRKRPPRLPRPRPRPAFFPRP,0.411
15,RRIRQRPPRLPRPRPRPYIQPRP,-0.32
16,RRIRWRPPRLPRPRPRPAWNPRP,0.155
17,RRIRYRPPRLPRPRPRPLCPPRP,-0.397
18,RRIRHRPPRLPRPRPRPNARPRP,-0.0163
19,RRIRERPPRLPRPRPRPGPSPRP,-0.109
20,RRIRERPPRLPRPRPRPRERPRP,0.389
21,RRIRGRPPRLPRPRPRPPGEPRP,1.14
22,RRIRKRPPRLPRPRPRPQHMPRP,0.0396
23,RRIRLRPPRLPRPRPRPNATPRP,0.0161
24,RRIRARPPRLPRPRPRPCKGPRP,-0.0784
25,RRIRPRPPRLPRPRPRPFTIPRP,-0.0323

row,Sequence,shrunken log2 fold change
1,RRIRWRPPRLPRPRPRPLKMPRP,0.234
2,RRIRTRPPRLPRPRPRPNVIPRP,-0.372
3,RRIRMRPPRLPRPRPRPSEMPRP,0.185
4,RRIRYRPPRLPRPRPRPPVEPRP,-0.108
5,RRIRQRPPRLPRPRPRPYHPPRP,-0.531
6,RRIRNRPPRLPRPRPRPEASPRP,0.0343
7,RRIRLRPPRLPRPRPRPPIRPRP,0.296
8,RRIRLRPPRLPRPRPRPWGQPRP,-0.0472
9,RRIRMRPPRLPRPRPRPFAKPRP,0.3
10,RRIRFRPPRLPRPRPRPSCDPRP,-0.314
11,RRIRIRPPRLPRPRPRPDHKPRP,-0.413
12,RRIRIRPPRLPRPRPRPNECPRP,-0.0258
13,RRIRERPPRLPRPRPRPANAPRP,-0.0563
14,RRIRKRPPRLPRPRPRPAIHPRP,-0.0696
15,RRIRSRPPRLPRPRPRPFSEPRP,0.00901
16,RRIRERPPRLPRPRPRPTFKPRP,-0.313
17,RRIRQRPPRLPRPRPRPVGFPRP,0.00249
18,RRIRDRPPRLPRPRPRPCWRPRP,0.101
19,RRIRTRPPRLPRPRPRPCWQPRP,0.0902
20,RRIRARPPRLPRPRPRPRNMPRP,0.263
21,RRIRFRPPRLPRPRPRPWQHPRP,-0.0848
22,RRIRLRPPRLPRPRPRPKGCPRP,-0.0474
23,RRIRFRPPRLPRPRPRPHIYPRP,-1.22
24,RRIRNRPPRLPRPRPRPTQCPRP,-0.093
25,RRIRCRPPRLPRPRPRPFVYPRP,-0.526

row,Sequence,shrunken log2 fold change
1,RRIRLRPPRLPRPRPRPYNVPRP,-0.119
2,RRIRMRPPRLPRPRPRPRGKPRP,0.97
3,RRIRPRPPRLPRPRPRPIWPPRP,0.302
4,RRIRCRPPRLPRPRPRPVGDPRP,0.551
5,RRIRPRPPRLPRPRPRPQQAPRP,0.106
6,RRIRMRPPRLPRPRPRPYKEPRP,0.0136
7,RRIRSRPPRLPRPRPRPVLDPRP,-0.058
8,RRIRHRPPRLPRPRPRPKQDPRP,-0.557
9,RRIRDRPPRLPRPRPRPSHPPRP,-0.425
10,RRIRNRPPRLPRPRPRPCQWPRP,0.0401
11,RRIRIRPPRLPRPRPRPGTGPRP,0.0659
12,RRIRWRPPRLPRPRPRPEHRPRP,0.231
13,RRIRFRPPRLPRPRPRPITEPRP,-0.0279
14,RRIRFRPPRLPRPRPRPNYSPRP,-0.8
15,RRIRTRPPRLPRPRPRPLQYPRP,-0.0374
16,RRIRGRPPRLPRPRPRPRTVPRP,0.448
17,RRIRKRPPRLPRPRPRPEHPPRP,0.822
18,RRIRWRPPRLPRPRPRPKYMPRP,-0.501
19,RRIRARPPRLPRPRPRPKDPPRP,0.211
20,RRIRGRPPRLPRPRPRPTLLPRP,0.884
21,RRIRIRPPRLPRPRPRPEPKPRP,0.475
22,RRIRGRPPRLPRPRPRPQDPPRP,0.337
23,RRIRKRPPRLPRPRPRPPDLPRP,0.444
24,RRIRNRPPRLPRPRPRPCNTPRP,-0.442
25,RRIRWRPPRLPRPRPRPDFWPRP,0.582

row,Sequence,shrunken log2 fold change
1,RRIRGRPPRLPRPRPRPYRMPRP,-0.245
2,RRIRKRPPRLPRPRPRPGTRPRP,0.165
3,RRIRHRPPRLPRPRPRPMTHPRP,-0.235
4,RRIRIRPPRLPRPRPRPWCTPRP,-0.757
5,RRIRNRPPRLPRPRPRPSKPPRP,-0.399
6,RRIRERPPRLPRPRPRPAVEPRP,0.108
7,RRIRCRPPRLPRPRPRPVDIPRP,-0.241
8,RRIRCRPPRLPRPRPRPHERPRP,-0.0193
9,RRIRDRPPRLPRPRPRPHPEPRP,0.004
10,RRIRMRPPRLPRPRPRPFVLPRP,-0.691
11,RRIRERPPRLPRPRPRPPKHPRP,-0.0654
12,RRIRGRPPRLPRPRPRPRNEPRP,0.725
13,RRIRRRPPRLPRPRPRPHESPRP,0.0784
14,RRIRVRPPRLPRPRPRPAMNPRP,-0.498
15,RRIRMRPPRLPRPRPRPYSCPRP,-0.706
16,RRIRERPPRLPRPRPRPKNWPRP,1.59
17,RRIRQRPPRLPRPRPRPIRPPRP,0.0227
18,RRIRPRPPRLPRPRPRPGDTPRP,-0.0266
19,RRIRCRPPRLPRPRPRPGKPPRP,0.506
20,RRIRMRPPRLPRPRPRPEQIPRP,0.527
21,RRIRLRPPRLPRPRPRPCVTPRP,-0.498
22,RRIRKRPPRLPRPRPRPTMMPRP,0.316
23,RRIRLRPPRLPRPRPRPHANPRP,-0.293
24,RRIRVRPPRLPRPRPRPHAHPRP,-0.256
25,RRIRYRPPRLPRPRPRPCVSPRP,-0.0134

row,Sequence,shrunken log2 fold change
1,RRIRPRPPRLPRPRPRPSIHPRP,-0.974
2,RRIRFRPPRLPRPRPRPKQEPRP,0.246
3,RRIRPRPPRLPRPRPRPYYGPRP,-0.271
4,RRIRQRPPRLPRPRPRPIQRPRP,-0.0376
5,RRIRQRPPRLPRPRPRPPHWPRP,0.641
6,RRIRYRPPRLPRPRPRPGVMPRP,-0.55
7,RRIRWRPPRLPRPRPRPGALPRP,0.406
8,RRIRGRPPRLPRPRPRPMTYPRP,0.274
9,RRIRGRPPRLPRPRPRPAMTPRP,1.48
10,RRIRYRPPRLPRPRPRPYDWPRP,-0.886
11,RRIRHRPPRLPRPRPRPSQMPRP,0.0205
12,RRIRSRPPRLPRPRPRPQMTPRP,-0.0755
13,RRIRQRPPRLPRPRPRPEDLPRP,0.125
14,RRIRVRPPRLPRPRPRPHFPPRP,0.046
15,RRIRSRPPRLPRPRPRPPPTPRP,0.914
16,RRIRPRPPRLPRPRPRPTHNPRP,0.199
17,RRIRQRPPRLPRPRPRPIARPRP,-0.0171
18,RRIRARPPRLPRPRPRPMIHPRP,-0.119
19,RRIRPRPPRLPRPRPRPLLGPRP,0.191
20,RRIRDRPPRLPRPRPRPGDGPRP,0.85
21,RRIRPRPPRLPRPRPRPENTPRP,0.11
22,RRIRARPPRLPRPRPRPSAMPRP,0.38
23,RRIRWRPPRLPRPRPRPHLDPRP,-0.0108
24,RRIRNRPPRLPRPRPRPWHTPRP,-0.0681
25,RRIRNRPPRLPRPRPRPAFCPRP,0.0699

# Source: the supplement of paper PMC9112550, “Optimization of the antimicrobial peptide Bac7 by deep mutational scanning” (BMC Biology, 2022)
